Laboratory results: US9540428B2, “Extracellular matrix heparin-binding domains” (EPFL-TTO, priority 2012, dated 2017)

T1: FGF-7 (Homo sapiens, UniProt P21781)
T1 sequence (P21781 32-194): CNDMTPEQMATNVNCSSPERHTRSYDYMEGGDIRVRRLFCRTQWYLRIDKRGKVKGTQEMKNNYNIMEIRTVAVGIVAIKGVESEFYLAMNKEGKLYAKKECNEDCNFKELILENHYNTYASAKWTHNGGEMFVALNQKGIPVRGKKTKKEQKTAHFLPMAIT

T2: FGF-10 (Homo sapiens, UniProt O15520)
T2 sequence (O15520 38-208): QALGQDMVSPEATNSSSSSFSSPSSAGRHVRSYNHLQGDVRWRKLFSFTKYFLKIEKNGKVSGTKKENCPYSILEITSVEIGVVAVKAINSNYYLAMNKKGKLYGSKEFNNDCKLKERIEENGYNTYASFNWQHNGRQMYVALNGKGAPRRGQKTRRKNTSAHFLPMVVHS

T3: TGF-β2 (Homo sapiens, UniProt P61812)
T3 sequence (P61812 303-414 limits assumed): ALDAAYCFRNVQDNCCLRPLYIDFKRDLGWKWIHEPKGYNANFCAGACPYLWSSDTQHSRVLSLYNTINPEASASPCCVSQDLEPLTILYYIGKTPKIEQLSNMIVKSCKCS

T4: NT-3 (Homo sapiens, UniProt P20783)
T4 sequence (P20783 139-257): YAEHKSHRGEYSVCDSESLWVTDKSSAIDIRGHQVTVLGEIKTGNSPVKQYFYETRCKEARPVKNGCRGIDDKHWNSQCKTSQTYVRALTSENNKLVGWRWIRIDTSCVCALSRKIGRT

T5: BDNF (Homo sapiens, UniProt P23560)
T5 sequence (P23560 129-247): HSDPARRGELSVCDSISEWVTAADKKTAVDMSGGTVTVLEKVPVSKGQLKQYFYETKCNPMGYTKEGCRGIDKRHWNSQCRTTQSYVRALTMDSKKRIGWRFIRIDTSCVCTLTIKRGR

T6: PLGF-2 (Homo sapiens, UniProt P49763)
T6 sequence (P49763 19-170 isoform P49763-3 limits assumed): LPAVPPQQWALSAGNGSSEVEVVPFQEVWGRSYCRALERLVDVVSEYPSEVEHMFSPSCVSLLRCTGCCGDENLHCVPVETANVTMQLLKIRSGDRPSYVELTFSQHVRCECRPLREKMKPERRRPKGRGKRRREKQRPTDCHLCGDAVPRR

T7: PLGF-1 (Homo sapiens, UniProt P49763)
T7 sequence (P49763 19-149 isoform P49763-2): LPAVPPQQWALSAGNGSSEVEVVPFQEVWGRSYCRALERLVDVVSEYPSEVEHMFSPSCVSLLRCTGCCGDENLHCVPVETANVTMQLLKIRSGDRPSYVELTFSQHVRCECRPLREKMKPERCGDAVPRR

T8: BMP-2 (Homo sapiens, UniProt P12643)
T8 sequence (P12643 283-396): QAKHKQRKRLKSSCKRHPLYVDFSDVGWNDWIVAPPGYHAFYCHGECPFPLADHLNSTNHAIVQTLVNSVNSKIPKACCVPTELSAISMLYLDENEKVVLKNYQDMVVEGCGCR

T9: VEGF-A165 (Homo sapiens, UniProt P15692)
T9 sequence (P15692 1-191 isoform P15692-4): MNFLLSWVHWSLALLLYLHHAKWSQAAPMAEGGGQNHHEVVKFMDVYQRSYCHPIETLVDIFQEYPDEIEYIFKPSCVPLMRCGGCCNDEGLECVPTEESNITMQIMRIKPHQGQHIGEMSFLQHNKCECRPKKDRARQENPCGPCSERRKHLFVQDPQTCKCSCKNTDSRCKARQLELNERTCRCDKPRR

T10: VEGF-B (Homo sapiens, UniProt P49765)
T10 sequence (P49765 22-207): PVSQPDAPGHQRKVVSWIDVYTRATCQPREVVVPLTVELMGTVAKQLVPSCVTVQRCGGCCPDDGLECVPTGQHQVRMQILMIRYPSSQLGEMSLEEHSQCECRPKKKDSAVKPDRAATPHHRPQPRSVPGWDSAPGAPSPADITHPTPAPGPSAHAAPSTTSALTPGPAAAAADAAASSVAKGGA

B1: TNC III1-5: recombinant tenascin C fibronectin type III repeats 1-5 (E622 to A1074) with transglutaminase substrate NQEQVSPL and 6×His tag, SEQ ID NO:1 (protein)
chain: METDTLLLWVLLLWVPGSTGDAAQPAIEGRNQEQVSPLGGSEVSPPKDLVVTEVTEETVNLAWDNEMRVTEYLVVYTPTHEGGLEMQFRVPGDQTSTIIQELEPGVEYFIRVFAILENKKSIPVSARVATYLPAPEGLKFKSIKETSVEVEWDPLDIAFETWEIIFRNMNKEDEGEITKSLRRPETSYRQTGLAPGQEYEISLHIVKNNTRGPGLKRVTTTRLDAPSQIEVKDVTDTTALITWFKPLAEIDGIELTYGIKDVPGDRTTIDLTEDENQYSIGNLKPDTEYEVSLISRRGDMSSNPAKETFTTGLDAPRNLRRVSQTDNSITLEWRNGKAAIDSYRIKYAPISGGDHAEVDVPKSQQATTKTTLTGLRPGTEYGIGVSAVKEDKESNPATINAATELDTPKDLQVSETAETSLTLLWKTPLAKFDRYRLNYSLPTGQWVGVQLPRNTTSYVLRGLEPGQEYNVLLTAEKGRHKSKPARVKASTEQAGGGSHHHHHH
modifications: Tenascin III signal sequence with polyhistidine tag
B2: Fg β15-66: heparin-binding domain of human fibrinogen β chain aa15-66 (SEQ ID NO:8); construct with TG substrate and His tag, SEQ ID NO:2 (protein)
chain: GSNQEQVSPLGHRPLDKKREEAPSLRPAPPPISGGGYRARPAKAAATQKKVERKAPDAGGCGHHHHHH
modifications: GS linker, transglutaminase substrate, the Fg beta15-66, with a Histidine tag

What was measured:
Settings in all cases: 50 nM cytokine coated
[1] = molecular target: FGF-2 (Homo sapiens, UniProt P09038); assay: ELISA binding to coated FGF-2
Sequence of FGF-2 (P09038 143-288, species assumed): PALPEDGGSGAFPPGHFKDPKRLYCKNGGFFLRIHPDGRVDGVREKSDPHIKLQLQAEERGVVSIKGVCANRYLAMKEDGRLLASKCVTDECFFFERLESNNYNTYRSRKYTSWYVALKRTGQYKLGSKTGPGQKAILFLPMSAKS
Protocol: (§1) ELISA plates were coated with cytokines or BSA and further incubated with TNC III1-5 to analyze binding of TNC III1-5 to a wide variety of cytokines. […] Results are depicted in FIG. 3. Method: 50 nM of cytokine was coated for (1 hr, 37° C.). After blocking with 2% BSA (1 hr, RT). 100 nM TNC III1-5 was applied in PBST (0.05% tween, 0.1% bovine serum albumin (BSA)) (1 hr, RT). TNC III1-5 was detected with horseradish peroxidase (HRP)-anti-HIS in PBST (1 hr, RT) and developed with 3,3′,5,5′-tetramethylbenzidine (TMB), a soluble colorimetric HRP […]. Addition of sulfuric acid stop solution changes the color to yellow, enabling accurate measurement of the intensity at 450 nm using a spectrophotometer or plate reader. […] Heparin (4 μM) was added to TNC III1-5 to test the effect of blocking the heparin binding site of TNC III1-5, which has been defined as domain TNC III5 (Weber, Zimmermann, et al., 1995).
(§2) ELISA plates were coated with cytokines or BSA and further incubated with Fg β15-66 to analyze binding of […] to a wide variety of cytokines. […] Results are depicted in FIG. 4. Method: The methods were analogous to those used in Example 3.

[2] = molecular target: T1, FGF-7; assay: ELISA binding to coated FGF-7
Protocol: as §1, §2

[3] = molecular target: T2, FGF-10; assay: ELISA binding to coated FGF-10
Protocol: as §1, §2

[4] = molecular target: TGF-β1 (Homo sapiens, UniProt P01137); assay: ELISA binding to coated TGF-β1
Sequence of TGF-β1 (P01137 279-390 limits assumed, species assumed): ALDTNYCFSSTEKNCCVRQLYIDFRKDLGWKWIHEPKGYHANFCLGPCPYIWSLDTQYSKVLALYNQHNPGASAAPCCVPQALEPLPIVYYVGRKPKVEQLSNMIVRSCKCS
Protocol: as §1, §2

[5] = molecular target: T3, TGF-β2; assay: ELISA binding to coated TGF-β2
Protocol: as §1, §2

[6] = molecular target: T4, NT-3; assay: ELISA binding to coated NT-3
Protocol: as §1, §2

[7] = molecular target: T5, BDNF; assay: ELISA binding to coated BDNF
Protocol: as §1, §2

[8] = molecular target: T6, PLGF-2; assay: ELISA binding to coated PLGF-2
Protocol: as §1, §2

[9] = molecular target: T7, PLGF-1; assay: ELISA binding to coated PLGF-1
Protocol: as §1, §2

[10] = molecular target: T8, BMP-2; assay: ELISA binding to coated BMP-2
Protocol: as §1, §2

[11] = molecular target: PDGF-AB (Homo sapiens, UniProt P01127+P04085); assay: ELISA binding to coated PDGF-AB
Sequence of PDGF-AB (P01127 82-190 limits assumed, other chains not shown): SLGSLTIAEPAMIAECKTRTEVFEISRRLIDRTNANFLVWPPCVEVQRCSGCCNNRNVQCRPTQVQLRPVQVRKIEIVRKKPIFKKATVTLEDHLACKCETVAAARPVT
Protocol: as §1, §2

[12] = molecular target: PDGF-BB (Homo sapiens, UniProt P01127); assay: ELISA binding to coated PDGF-BB
Sequence of PDGF-BB (P01127 82-190 limits assumed): as the sequence (P01127 82-190 limits assumed, other chains not shown) above
Protocol: as §1, §2

[13] = molecular target: T9, VEGF-A165; assay: ELISA binding to coated VEGF-A165
Protocol: as §1, §2

[14] = molecular target: T10, VEGF-B; assay: ELISA binding to coated VEGF-B
Protocol: as §1, §2

[15] = molecular target: IGF-BP3 (Homo sapiens, UniProt P17936); assay: ELISA binding to coated IGF-BP3
Sequence of IGF-BP3 (P17936 28-291, species assumed): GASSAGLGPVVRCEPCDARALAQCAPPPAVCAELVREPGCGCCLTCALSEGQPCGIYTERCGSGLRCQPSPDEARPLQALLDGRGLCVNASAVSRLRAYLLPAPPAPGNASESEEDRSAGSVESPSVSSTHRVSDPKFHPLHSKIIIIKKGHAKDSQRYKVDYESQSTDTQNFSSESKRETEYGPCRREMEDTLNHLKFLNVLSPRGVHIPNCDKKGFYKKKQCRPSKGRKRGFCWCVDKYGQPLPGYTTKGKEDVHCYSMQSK
Protocol: as §1, §2

[16] = molecular target: IGF-BP5 (Homo sapiens, UniProt P24593); assay: ELISA binding to coated IGF-BP5
Sequence of IGF-BP5 (P24593 21-272, species assumed): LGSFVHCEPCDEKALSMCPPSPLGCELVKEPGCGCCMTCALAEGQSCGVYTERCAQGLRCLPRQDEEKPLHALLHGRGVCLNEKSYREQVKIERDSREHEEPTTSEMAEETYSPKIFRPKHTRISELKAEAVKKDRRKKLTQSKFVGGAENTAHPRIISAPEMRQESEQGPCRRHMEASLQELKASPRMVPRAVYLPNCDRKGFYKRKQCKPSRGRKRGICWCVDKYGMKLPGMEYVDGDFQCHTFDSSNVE
Protocol: as §1, §2

Molecule	binding to FGF-2 (ELISA, signal above BSA background) [1]	binding to FGF-7 (ELISA, signal above BSA background) [2]	binding to FGF-10 (ELISA, signal above BSA background) [3]	binding to TGF-β1 (ELISA, signal above BSA background) [4]	binding to TGF-β2 (ELISA, signal above BSA background) [5]	binding to NT-3 (ELISA, signal above BSA background) [6]	binding to BDNF (ELISA, signal above BSA background) [7]	binding to PLGF-2 (ELISA, signal above BSA background) [8]	binding to PLGF-1 (ELISA, signal above BSA background) [9]	binding to BMP-2 (ELISA, signal above BSA background) [10]	binding to PDGF-AB (ELISA, signal above BSA background) [11]	binding to PDGF-BB (ELISA, signal above BSA background) [12]	binding to VEGF-A165 (ELISA, signal above BSA background) [13]	binding to VEGF-B (ELISA, signal above BSA background) [14]	binding to IGF-BP3 (ELISA, signal above BSA background) [15]	binding to IGF-BP5 (ELISA, signal above BSA background) [16]
B1	positive binding	positive binding	positive binding	positive binding	positive binding	positive binding	positive binding	positive binding	positive binding	positive binding	positive binding	positive binding	positive binding	positive binding	positive binding	positive binding
B2	positive binding	positive binding	positive binding	positive binding	positive binding	positive binding	positive binding	positive binding	did not bind	positive binding	positive binding	positive binding	positive binding	positive binding	positive binding	positive binding
